The target in assay [1] is T1, Human IL-1RAP, membrane-bound on human cells (HaCaT, dermal fibroblasts, neutrophils, PBMC, whole blood) (human, UniProt Q9NPH3 21-570).
T1 construct: Endogenous protein on cells
T1 sequence: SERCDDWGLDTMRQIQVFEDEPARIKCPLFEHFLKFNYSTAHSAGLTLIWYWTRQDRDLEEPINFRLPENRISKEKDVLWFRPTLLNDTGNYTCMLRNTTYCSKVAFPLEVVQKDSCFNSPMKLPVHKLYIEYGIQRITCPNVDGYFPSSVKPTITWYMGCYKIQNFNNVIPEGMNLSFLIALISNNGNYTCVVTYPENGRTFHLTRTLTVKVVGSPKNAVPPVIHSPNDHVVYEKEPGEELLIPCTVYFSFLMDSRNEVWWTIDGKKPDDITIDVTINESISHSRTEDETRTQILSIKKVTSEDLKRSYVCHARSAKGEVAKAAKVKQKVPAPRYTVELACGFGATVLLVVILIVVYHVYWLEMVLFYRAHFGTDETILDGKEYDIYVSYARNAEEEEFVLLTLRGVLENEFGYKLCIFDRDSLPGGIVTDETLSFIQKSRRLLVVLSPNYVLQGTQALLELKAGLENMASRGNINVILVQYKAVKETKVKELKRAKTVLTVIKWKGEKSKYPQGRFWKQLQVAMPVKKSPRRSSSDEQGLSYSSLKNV
Kind of assay: flow cytometry on normal human fibroblasts, nonlinear sigmoidal regression. Here is the method:
(§1) Bound antibodies were detected with a monoclonal anti-human IgG PE-Cyanine7 secondary antibody. The graphs show the nonlinear sigmoidal regression binding curves (Relative Geometric Mean Fluorescence Intensity) for each cell lines. Each data point is a measurement for a given cell line. Multiple independent experiments were performed across several donors (HaCaT and HaCaT IL-1RAP KO: 4 and 3 independent experiments; Human Dermal Fibroblasts: 2 independent experiments—total of 5 donors; Human Neutrophil: 2 experiments—total of 6 donors; Cyno Dermal Fibroblasts: 2 independent experiment—total of 4 donors).
In brief, cells were harvested, counted, and plated at 50,000 cells/well in a 96-well round-bottom plate. The plate was centrifuged at 350 g for 3 minutes and the cells were resuspended in 50 μl of FACS® buffer (PBS (1×)+2.5% FCS+2 mM EDTA+0.05% NaN₃) containing various concentrations (ranging from 50 to 0.00003 μg/ml) of either anti-human IL-1RAP_candidate_1 or Isotype control_5 antibodies. […] The cells were gated based on size on FSC vs SSC and analyzed for PE-Cyanine7-geometric mean (geomean) fluorescence intensity using FLOWJO® software. Finally, relative geomean fluorescence intensity was calculated by subtracting fluorescence of anti-human IL-1RAP_candidate_1 per fluorescence of Isotype control_5. […]
For orientation: Flow cytometry measures light scatter and fluorescence of single cells or particles in a stream.

The target in assay [2] is T1, Human IL-1RAP, membrane-bound on human …. Kind of assay: flow cytometry on human neutrophils, anti-human IgG PE-Cyanine7, relative geometric MFI (isotype subtracted). Here is the method:
as §1, with “A dose-response of anti-human IL-1RAP_candidate_1 (●) or Isotype control_5 (▪) was incubated with various cell lines and cell types. Bound” for “Bound”
In brief, cells were harvested, counted, and plated at 50,000 cells/well in a 96-well round-bottom plate. […] The cells were gated based on size on FSC vs SSC and analyzed for PE-Cyanine7-geometric mean (geomean) fluorescence intensity using FLOWJO® software. Finally, relative geomean fluorescence intensity was calculated by subtracting fluorescence of anti-human IL-1RAP_candidate_1 per fluorescence of Isotype control_5. […]

B1: Anti-IL-1RAP-C8-RecC-ES-IgG1LALA (antibody, V domains shown)
VH: QVQLVQSGAEVKKPGSSVKVSCKASGSPAEPYAIQWVRQAPGQGLEWMGYIIPSLGGYDYAQKFQGRVTITADESTSTAYMELSSLRSEDTAVYYCARGQTLYESGRQFDIWGQGTLVTVSS
VL: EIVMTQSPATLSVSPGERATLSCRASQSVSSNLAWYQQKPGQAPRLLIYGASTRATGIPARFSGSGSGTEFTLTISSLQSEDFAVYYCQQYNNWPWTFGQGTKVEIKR
notes: also called ISB 880-C8-recC-ES
The molecule B1 registered a Kd in assay [1] of 3.1 nM. Also, the “EC50 (read off the curve)” value in assay [2] is around 0.2 µg/mL.

Broadly, the Kd is the concentration at which binding is half-saturated. The term EC50 (read off the curve) denotes the midpoint of the concentration-response curve. A low value points to an effect from little substance.

The record behind these values is patent publication US20240327530A1 (ICHNOS SCIENCES, published 2024).
